Laboratory results taken from paper PMC12207590, “Substrate Specificity of the Organic Cation Transporters MATE1 and MATE2K and Functional Overlap with OCT1 and OCT2” (Journal of Medicinal Chemistry, 2025).
Several values for one entry are separate records, joined by “and”; a condition that tells them apart may be missing. Equal entries are not always repeated.

Tested on: CN(C)CCc1c[nH]c2ccc(C[C@H]3COC(=O)N3)cc12
Assay: cells, lysate or membranes
Settings: other: HEK293, 1 min, net uptake; pH 7.4; 37.0 °C

Sequence of MATE2K (Homo sapiens) (chain, as listed by the source): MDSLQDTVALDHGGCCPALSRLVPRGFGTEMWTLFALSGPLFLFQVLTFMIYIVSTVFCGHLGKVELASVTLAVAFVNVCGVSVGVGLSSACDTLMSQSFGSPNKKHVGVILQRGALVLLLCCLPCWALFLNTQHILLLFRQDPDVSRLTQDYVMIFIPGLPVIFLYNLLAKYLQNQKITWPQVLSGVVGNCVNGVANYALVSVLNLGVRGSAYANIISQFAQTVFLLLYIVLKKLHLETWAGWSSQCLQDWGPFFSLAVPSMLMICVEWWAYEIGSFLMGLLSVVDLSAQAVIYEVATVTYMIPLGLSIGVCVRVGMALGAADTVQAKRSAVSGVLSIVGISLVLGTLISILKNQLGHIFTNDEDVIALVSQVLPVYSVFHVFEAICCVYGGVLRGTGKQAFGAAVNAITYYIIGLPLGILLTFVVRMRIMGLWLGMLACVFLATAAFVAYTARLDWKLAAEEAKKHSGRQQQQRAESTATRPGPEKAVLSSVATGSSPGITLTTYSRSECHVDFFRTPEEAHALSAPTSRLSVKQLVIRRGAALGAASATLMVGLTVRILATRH

MATE2K (Homo sapiens)
Km: 23.1 µM and 18.3 µM
Vmax: 0.00074 µmol/min/mg and 0.000992 µmol/min/mg
Vmax/Km: 32.1 µL/min/mg and 54.2 µL/min/mg
